Test results from US20070269440A1, “Stimulators of osteoblastogenesis and applications of the same” (Board of Trustees of the University of Arkansas, priority 2006, published 2007).

Legend:
[1] = test system: distracted tibia of 21-month-old C57BL6 mice; assay: Distraction osteogenesis in aged mice, new bone in DO gap by histology; format: in vivo, mouse; details: 21-month old mice, sTNF-RI 8.0 mg/kg s.c. every other day, 3-day latency, 14 days of distraction; control 31.2±12.4%, p<0.009
Excerpt: After radiography, the distracted tibiae were decalcified in 5% formic acid. The specimens were paraffin-embedded and cut into 5-7 micron longitudinal (coronal) sections on a microtome (Leitz 1512, Wetzlar, Germany) for staining (hematoxylin & eosin). The sections chosen for analysis were selected to represent a central or near central gap location. This was accomplished by choosing slides that contained all four full thickness cortices with intact marrow spaces on both the proximal and distal ends of the distraction gap. All organized osteoid/sinusoid columns were defined as new bone. We defined periosteal new bone as that outside of each cortex and endosteal new bone as that within the cortices. […] The distraction gap area was outlined from the outside corners of the two proximal and the two distal cortices forming a quadrilateral region of interest, and the area of that region (gap area) was recorded. Both the proximal and distal endosteal new bone matrix, which is easily distinguished from the central fibrous tissue at the PMF, was outlined and the area recorded (new bone area). The percentage of new bone within the distraction gap was calculated by dividing new bone area/gap area (8, 9-11). […]

[2] = test system: distracted tibia of 21-month-old C57BL6 mice; assay: Distraction osteogenesis in aged mice, new bone in DO gap by single-beam radiography; format: in vivo, mouse; details: 21-month old mice, sTNF-RI 8.0 mg/kg s.c. every other day, 3-day latency, 14 days of distraction; control 27.3±8.4%, p<0.038
Excerpt: For initial radiography a Xerox Micro 50 closed system radiography unit (Xerox, Pasadena, Calif.) was used at 40 kilovolts (3 mA) for 20 seconds with Kodak X-OMAT film to radiograph the specimens. For quantitation, the radiographs and histology slides are video recorded by radio camera under low power (1.25× objective) microscopic magnification and transferred into a computer (Macintosh IIx Image 1.28c). The radiographs allow for quantitation of mineralized bone within the distraction gap. The measured distraction gap area was outlined from the outside corners of the two proximal and the two distal cortices forming a quadrilateral region of interest. The mineralized new bone area in the gap was determined by outlining the regions with radiodensity equivalent to or greater than the adjacent medullary bone. Mean pixel density of the defined distraction gap was measured using NIH Image on an arbitrary 256 degree scale. […] The percentage of new mineralized bone area within the distraction gap (% new bone) was calculated by dividing mineralized bone area/gap area. (6, 7).
Twenty-four 21-month-old C57BL6 mice underwent placement of an external fixator and osteotomy to the left tibia. The surgeries were completed over a four-day period. After surgeries there were eleven mice in the control group (one died during surgery) and twelve mice in the group to be treated with sTNF-RI. […]

B1: sTNF-RI: soluble TNF receptor Type I, a TNF blocker (TNF antagonist) (protein, UniProt P19438 30-211, looked up)
extracellular domain: LVPHLGDREKRDSVCPQGKYIHPQNNSICCTKCHKGTYLYNDCPGPGQDTDCRECESGSFTASENHLRHCLSCSKCRKEMGQVEISSCTVDRDTVCGCRKNQYRHYWSENLFQCFNCSLCLNGTVHLSCQEKQNTVCTCHAGFFLRENECVSCSNCKKSLECTKLCLPQIENVKGTEDSGTT
modifications: extracellular domain
[1]
  Mineralization of the DO gap, as measured histologically (% of the distraction gap): 76.1±7.5 % SEM
[2]
  Mineralization of the DO gap, as measured from the radiographs (% of the distraction gap): 55.2±8.8 % SEM
